{"source": "paper PMC6839023", "about": "“Structure of the UspA1 protein fragment from Moraxella catarrhalis responsible for C3d binding” (Journal of Structural Biology, 2019)", "proteins": {"B1": {"name": "UspA1^299–452 (ubiquitous surface protein A1 fragment, residues 299–452) (domain or fragment)", "chain": "not shown", "modifications": "fluorescently labelled with the Monolith NT His-Tag Labelling Kit RED-tris-NTA (thermophoresis only)", "notes": "UspA1 of Moraxella catarrhalis strain ATCC 25238 (BC5), GenBank AAD43465, residues 299-452: part of the long neck (299-336) and of the stalk (337-452); Cloned NdeI/HindIII into pET22b(+); No thrombin cleavage is described; Trimer in the crystal; also called UspA1 fragment (amino acids 299–452); UspA^299–452; source: E. coli BL21(DE3), purified (NiNTA, Superdex 200)"}}, "molecular_target": "the molecule itself", "test": "crystal structure; UspA1 299-452 (2.4 mg/ml) mixed 1:3 with C3d (10.7 mg/ml); 1,6-hexanediol, 0.1 M Tris-HCl pH 8.5, 20 mM MgCl2; 2.5 Å; the crystals held only UspA1 299-452", "data": [{"protein": "B1", "values": [{"measurement": "stoichiometry N", "result": 3}]}]}
